In PMC10786891, “Massively parallel profiling of RNA-targeting CRISPR-Cas13d”:
Positions count from the first letter of the chain named. Numbers in names are those of the source.

T1: EsCas13d, nuclease-dead (Eubacterium siraeum, UniProt B0MS50, R295A;H300A;R849A;H854A)
T1 sequence: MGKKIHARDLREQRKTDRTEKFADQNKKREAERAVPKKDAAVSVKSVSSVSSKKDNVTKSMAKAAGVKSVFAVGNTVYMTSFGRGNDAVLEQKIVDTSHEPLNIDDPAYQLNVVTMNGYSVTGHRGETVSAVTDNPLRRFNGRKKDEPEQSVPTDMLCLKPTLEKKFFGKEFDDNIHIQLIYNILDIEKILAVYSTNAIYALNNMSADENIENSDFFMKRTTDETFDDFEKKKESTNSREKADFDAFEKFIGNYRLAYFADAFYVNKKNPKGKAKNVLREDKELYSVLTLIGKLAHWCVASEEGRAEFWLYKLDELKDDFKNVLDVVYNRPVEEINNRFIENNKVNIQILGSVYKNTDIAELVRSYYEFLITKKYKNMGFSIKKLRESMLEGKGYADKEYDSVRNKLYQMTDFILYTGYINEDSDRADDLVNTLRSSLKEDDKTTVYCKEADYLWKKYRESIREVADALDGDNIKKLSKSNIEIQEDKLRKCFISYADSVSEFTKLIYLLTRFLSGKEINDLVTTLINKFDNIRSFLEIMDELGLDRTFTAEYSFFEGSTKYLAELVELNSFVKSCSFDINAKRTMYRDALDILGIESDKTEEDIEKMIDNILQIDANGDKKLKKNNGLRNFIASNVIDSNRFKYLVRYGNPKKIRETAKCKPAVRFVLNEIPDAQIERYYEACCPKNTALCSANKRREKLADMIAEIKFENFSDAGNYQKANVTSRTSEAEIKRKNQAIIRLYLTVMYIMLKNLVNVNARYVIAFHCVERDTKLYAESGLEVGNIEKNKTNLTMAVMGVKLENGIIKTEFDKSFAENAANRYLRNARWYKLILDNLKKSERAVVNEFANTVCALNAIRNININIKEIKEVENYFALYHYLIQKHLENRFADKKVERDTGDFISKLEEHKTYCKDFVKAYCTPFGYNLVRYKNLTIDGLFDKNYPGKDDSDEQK

B1: target 1 insA 3' of 19 (mixed)
RNA 1: CACCCGUGCAAAAAUGCAGGGGUCUAAAACUGAGCGGAUAACCUCUCUAUGG
RNA 2: GGGAAUGGAUCCACAUCUACGAAUUCGUACCAUAAGAGAGGUUAUCCGCUCACCGAGAUCGGAAGAGCACACGU
B2: target 1 insG 3' of 18,insU 3' of 5 (mixed)
RNA 1: B1 RNA 1
RNA 2: GGGAAUGGAUCCACAUCUACGAAUUCGUACCAUAGGAGAGGUUAUCCGUCUCACCGAGAUCGGAAGAGCACACGU
B3: target 1 G12A,G13A (mixed)
RNA 1: B1 RNA 1
RNA 2: GGGAAUGGAUCCACAUCUACGAAUUCGUACCAUAGAGAAAUUAUCCGCUCACCGAGAUCGGAAGAGCACACGU
B4: target 1 G15C,C21U (mixed)
RNA 1: B1 RNA 1
RNA 2: B3 RNA 2 with C31U, G37C, A39G, A40G
B5: target 1 insA 3' of 22,insG 3' of 16 (mixed)
RNA 1: B1 RNA 1
RNA 2: GGGAAUGGAUCCACAUCUACGAAUUCGUACACAUAGAGGAGGUUAUCCGCUCACCGAGAUCGGAAGAGCACACGU
B6: target 1 insU 3' of 13,insU 3' of 6 (mixed)
RNA 1: B1 RNA 1
RNA 2: B2 RNA 2 with G36A, A37G, G38A, A39G, G40U, G48U, U49G
B7: target 1 insU 3' of 15,insA 3' of 4 (mixed)
RNA 1: B1 RNA 1
RNA 2: B2 RNA 2 with G36A, A37G, G38U, U49C, C50A
B8: target 1 insC 3' of 8,insA 3' of 7 (mixed)
RNA 1: B1 RNA 1
RNA 2: GGGAAUGGAUCCACAUCUACGAAUUCGUACCAUAGAGAGGUUAUCCACGCUCACCGAGAUCGGAAGAGCACACGU
B9: target 1 insU 3' of 20,insG 3' of 18 (mixed)
RNA 1: B1 RNA 1
RNA 2: B5 RNA 2 with A31C, C32A, A33U, A37G, G38A
B10: target 1 C4U,U11C (mixed)
RNA 1: B1 RNA 1
RNA 2: B3 RNA 2 with A39G, A40G, U41C, C48U
B11: target 1 insA 3' of 11,insU 3' of 5 (mixed)
RNA 1: B1 RNA 1
RNA 2: B2 RNA 2 with G36A, A37G, G38A, A39G, G41U, U42A
B12: target 1 C4A,A18C (mixed)
RNA 1: B1 RNA 1
RNA 2: B3 RNA 2 with A34C, A39G, A40G, C48A
B13: target 1 insA 3' of 22,insC 3' of 5 (mixed)
RNA 1: B1 RNA 1
RNA 2: B2 RNA 2 with C31A, A32C, U33A, A34U, G35A, U49C
B14: target 1 insG 3' of 18,insA 3' of 15 (mixed)
RNA 1: B1 RNA 1
RNA 2: B5 RNA 2 with A31C, C32A, A33U, U34A, A35G, G39A
B15: target 1 C6U,C7G (mixed)
RNA 1: B1 RNA 1
RNA 2: B3 RNA 2 with A39G, A40G, C45G, C46U
B16: target 1 insA 3' of 17,insU 3' of 6 (mixed)
RNA 1: B1 RNA 1
RNA 2: B2 RNA 2 with G36A, G48U, U49G
B17: target 1 G5C,A20C (mixed)
RNA 1: B1 RNA 1
RNA 2: B3 RNA 2 with A32C, A39G, A40G, G47C
B18: target 1 insG 3' of 20,insA 3' of 19 (mixed)
RNA 1: B1 RNA 1
RNA 2: B5 RNA 2 with A31C, C32A, A33G, G36A, A37G, G38A
B19: target 1 complement block 4-12 (mixed)
RNA 1: B1 RNA 1
RNA 2: GGGAAUGGAUCCACAUCUACGAAUUCGUACCAUAGAGAGCAAUAGGCGUCACCGAGAUCGGAAGAGCACACGU
B20: target 1 A1C,C6A (mixed)
RNA 1: B1 RNA 1
RNA 2: B3 RNA 2 with A39G, A40G, C46A, A51C
B21: target 1 insG 3' of 8,insA 3' of 3 (mixed)
RNA 1: B1 RNA 1
RNA 2: B8 RNA 2 with C45G, A47C, C48G, G49C, C50U, U51A
B22: target 1 insG 3' of 9,insG 3' of 9 (mixed)
RNA 1: B1 RNA 1
RNA 2: B8 RNA 2 with U44G, C45G, C46U, A47C
B23: target 1 insC 3' of 17,insC 3' of 16 (mixed)
RNA 1: B1 RNA 1
RNA 2: B5 RNA 2 with A31C, C32A, A33U, U34A, A35G, G36C, G38C
B24: target 1 insU 3' of 18,insU 3' of 7 (mixed)
RNA 1: B1 RNA 1
RNA 2: B2 RNA 2 with G35U, C47U, G48C, U49G
B25: target 1 del11,del15 (mixed)
RNA 1: B1 RNA 1
RNA 2: GGGAAUGGAUCCACAUCUACGAAUUCGUACCAUAGAAGGUAUCCGCUCACCGAGAUCGGAAGAGCACACGU
B26: target 1 complement block 2-14 (mixed)
RNA 1: B1 RNA 1
RNA 2: B19 RNA 2 with A38U, G39C, U49A, C50G
B27: target 1 insC 3' of 19,insA 3' of 11 (mixed)
RNA 1: B1 RNA 1
RNA 2: B5 RNA 2 with A31C, C32A, A33U, U34C, G39A, A40G, G42U, U43A
B28: target 1 insG 3' of 19,insA 3' of 5 (mixed)
RNA 1: B1 RNA 1
RNA 2: B2 RNA 2 with A34G, G35A, U49A
B29: target 1 C7A,G15A (mixed)
RNA 1: B1 RNA 1
RNA 2: B3 RNA 2 with G37A, A39G, A40G, C45A
B30: target 1 insG 3' of 10 (mixed)
RNA 1: B1 RNA 1
RNA 2: B1 RNA 2 with A35G, G36A, A37G, G38A, A39G, G41U, U43G
B31: target 1 insG 3' of 20,insA 3' of 8 (mixed)
RNA 1: B1 RNA 1
RNA 2: B2 RNA 2 with U33G, A34U, G35A, C46A, G48C, U49G
B32: target 1 insG 3' of 22,insC 3' of 22 (mixed)
RNA 1: B1 RNA 1
RNA 2: B5 RNA 2 with A31G, A33C, U34A, A35U, G36A, A37G, G38A
B33: target 1 C6U,U19G (mixed)
RNA 1: B1 RNA 1
RNA 2: B3 RNA 2 with U33G, A39G, A40G, C46U
B34: target 1 C2G,A16G (mixed)
RNA 1: B1 RNA 1
RNA 2: B3 RNA 2 with A36G, A39G, A40G, C50G

Target: T1, EsCas13d, nuclease-dead
Experiment: crRNA (strand 1, pre-loaded); Mg2+; 40 mM Tris-HCl pH 7.5, 150 mM NaCl, 6 mM MgCl2, 1 mM DTT, 0.1% Tween-20, 0.2 mg/ml BSA; 25 C; 10 min per concentration, then washed
Settings: tags: His6-TwinStrep-SUMO cleaved; N-terminal SNAP kept (SNAP-Surface 488); label: 3' end held by stalled T7 RNA polymerase

Binder | Kd
B1 | 15.9 ± 0.7 nM
B2 | 65 ± 11 nM
B3 | 5.2 ± 0.23 nM
B4 | 9.4 ± 0.7 nM
B5 | 26.3 ± 2.6 nM
B6 | 17.9 ± 1.3 nM
B7 | 9.4 ± 0.8 nM
B8 | 15 ± 0.6 nM
B9 | 99 ± 21 nM
B10 | 27 ± 5 nM
B11 | 18.7 ± 1.5 nM
B12 | 63 ± 22 nM
B13 | 27.7 ± 3.5 nM
B14 | 61 ± 10 nM
B15 | 7.9 ± 0.8 nM
B16 | 14.5 ± 0.8 nM
B17 | 47 ± 7 nM

Binder | Kd
B18 | 45 ± 7 nM
B19 | 19.6 ± 1.3 nM
B20 | 7 ± 0.5 nM
B21 | 8.3 ± 0.5 nM
B22 | 16.2 ± 0.9 nM
B23 | 27.3 ± 1.6 nM
B24 | 47 ± 4 nM
B25 | 35 ± 5 nM
B26 | 71 ± 17 nM
B27 | 98 ± 16 nM
B28 | 42 ± 5 nM
B29 | 14.6 ± 0.5 nM
B30 | 23 ± 1.7 nM
B31 | 60 ± 7 nM
B32 | 9.1 ± 0.4 nM
B33 | 48 ± 11 nM
B34 | 33.1 ± 1.6 nM
